The results in this text go back to patent US9005614B2, “PRLR-specific antibody and uses thereof” (Novartis AG, priority 2006, dated 2015).

For one series, the target named is T1, cynomolgus PRLR ECD (Macaca fascicularis, UniProt A0A2K5WXK1).
T1 construct: antibodies against human and cynomolgus PRLR ECD
T1 sequence (A0A2K5WXK1 25-234): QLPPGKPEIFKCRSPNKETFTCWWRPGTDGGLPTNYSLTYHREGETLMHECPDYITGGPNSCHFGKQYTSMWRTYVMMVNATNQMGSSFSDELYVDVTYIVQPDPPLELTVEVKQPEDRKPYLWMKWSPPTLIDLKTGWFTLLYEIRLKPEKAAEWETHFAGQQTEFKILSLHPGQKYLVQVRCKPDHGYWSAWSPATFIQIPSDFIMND
Description: Biacore kinetic titration, antibody captured on Protein A/G. The class given is binding. Particulars: Table 9, Cyno PRLR ECD; unit not given. The procedure: (§1) Affinity of the chimerized and HUMAN ENGINEERED™ antibodies determined by Biacore analysis. Briefly, a CM5 sensor chip (Biacore) immobilized with Protein A/G (Pierce) via NHS/EDC was used to capture approximately 600 RU of antibody on the chip surface. Five concentrations of PRLR ECD beginning at 5 ug/mL (185 nM) and serially diluted at 5× dilution to 0.3 nM were injected from lowest to highest concentration in the kinetic titration injection mode, and 15 minutes of dissociation data was collected. The experiments were double-referenced, i.e. an adjacent flow cell response was subtracted automatically, and the response from a buffer injection experiment was subtracted from the experimental data set. Kinetic and derived parameters (ka, kd and KD) were determined by fitting to a 1:1 Langmuir model using BiaEval software customized to the kinetic titration injection mode. Affinity measurements of both chimeric and all HUMAN ENGINEERED™ antibodies against human and cynomolgus PRLR ECD are summarized in Table 9 and Table 10.

Another series deals with T2, human PRLR ECD (Homo sapiens, UniProt P16471).
T2 construct: His6 (C); made in house; host or cells: Tn5 insect cells, baculovirus
T2 sequence (P16471 25-234): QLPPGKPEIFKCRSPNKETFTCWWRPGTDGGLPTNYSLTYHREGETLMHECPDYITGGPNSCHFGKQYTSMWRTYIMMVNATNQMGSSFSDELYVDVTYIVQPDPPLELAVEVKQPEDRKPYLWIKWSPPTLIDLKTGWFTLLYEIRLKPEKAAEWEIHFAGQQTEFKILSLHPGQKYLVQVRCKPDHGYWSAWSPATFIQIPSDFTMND
The series is described as above. Particulars: Table 9, Human PRLR ECD; unit not given. The class given is binding. The procedure: as §1

Another series deals with T3, Cyno PRLR (Macaca fascicularis, UniProt A0A2K5WXK1).
T3 construct: antibodies against human and cynomolgus PRLR ECD
T3 sequence (A0A2K5WXK1 25-234): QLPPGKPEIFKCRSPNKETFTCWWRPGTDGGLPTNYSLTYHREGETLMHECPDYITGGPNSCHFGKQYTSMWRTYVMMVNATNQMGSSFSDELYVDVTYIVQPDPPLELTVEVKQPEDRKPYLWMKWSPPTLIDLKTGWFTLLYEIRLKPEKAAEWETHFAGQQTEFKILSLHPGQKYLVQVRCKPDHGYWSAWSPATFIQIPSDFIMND
Nature of the series: Cross species affinity analysis on covalently immobilized antibodies. Particulars: Table 11, Cyno; covalently immobilized antibody; in 1/s. The class given is binding, cynomolgus. The protocol:
(§2) In order to compare rat and mouse cross reactivity using covalently immobilized antibodies, a CM4 chip was coupled with he.06.642-2 and he.06.275-4 antibodies via standard EDC-NHS amine coupling chemistries according to the recommended protocol from BIACORE® Inc. The PRLR ECD injections were performed at five concentrations in a three fold titration series starting at 111 nM and going down to 1.37 nM. Regeneration was performed with Glycine pH3.0. The affinity of all of the HE variants of XHA.06.642 and XHA.06.275 are very similar to the affinity of the parental chimeric antibody. […] Antibody he.06.275-4 binds to Cyno PRLR with 5 fold weaker affinity than Human PRLR.

In a further series the target is T4, Human PRLR (Homo sapiens, UniProt P16471).
T4 construct: His6 (C); made in house; host or cells: Tn5 insect cells, baculovirus
T4 sequence (P16471 25-234): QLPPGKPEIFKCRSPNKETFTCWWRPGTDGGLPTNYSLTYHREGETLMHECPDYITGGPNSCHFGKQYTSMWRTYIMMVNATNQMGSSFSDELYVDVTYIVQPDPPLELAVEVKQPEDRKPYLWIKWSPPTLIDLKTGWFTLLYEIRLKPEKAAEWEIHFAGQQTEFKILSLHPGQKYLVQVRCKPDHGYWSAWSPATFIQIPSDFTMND
The series is described as above. The class given is binding. Particulars: Table 11, Human; covalently immobilized antibody; in 1/s. The protocol: as §2

Another series concerns the target T5, Mouse PRLR (Mus musculus, UniProt Q08501).
T5 sequence (Q08501 20-229 limits assumed): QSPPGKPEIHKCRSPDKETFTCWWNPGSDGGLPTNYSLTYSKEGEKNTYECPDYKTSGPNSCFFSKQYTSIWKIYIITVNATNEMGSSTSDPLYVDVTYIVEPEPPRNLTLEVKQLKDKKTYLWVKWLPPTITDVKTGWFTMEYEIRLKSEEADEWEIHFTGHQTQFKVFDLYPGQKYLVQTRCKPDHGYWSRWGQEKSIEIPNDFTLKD
The description is as above. The class given is binding. The protocol: as §2

A further series addresses T6, Rat PRLR (Rattus norvegicus, UniProt P05710).
T6 sequence (P05710 20-229 limits assumed): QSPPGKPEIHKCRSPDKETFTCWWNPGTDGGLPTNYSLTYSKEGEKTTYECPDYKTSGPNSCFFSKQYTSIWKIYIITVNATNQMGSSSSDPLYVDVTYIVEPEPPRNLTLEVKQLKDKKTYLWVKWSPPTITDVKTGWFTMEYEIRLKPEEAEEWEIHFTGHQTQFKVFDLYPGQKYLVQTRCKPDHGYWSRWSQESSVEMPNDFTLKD
The series is described as above. The class given is binding. The procedure:
as §2

Series [1] relates to PRL-induced phospho-PRLR and phospho-Stat5. Description: PRL-induced PRLR and STAT5 phosphorylation in T47D cells by Western blot. The class given is cell-based, human. The protocol: Cells were pre-treated with 1 ug/ml mAb prior to 30 min stimulation with 50 ng/ml PRL. Lysates were analyzed for the presence of phospho-PRLR using antibodies specific for phosphotyrosine residues 546 and 611 of the PRLR.
T47D cells were incubated with 1 or 10 ug/ml mAb, then treated with or without PRL (50 ng/ml) for an additional 30 min.
The ability of selected antibodies to inhibit PRL-induced phosphorylation of STAT5 and AKT was determined as follows. Cells were seeded overnight in 6 well plates at a density of 3×10^5 cells/ml in phenol red-free RPMI/10% FBS. The following day, media was replaced with serum-free RPMI for 30 min. In some experiments, anti-PRLR or non-specific control antibodies were incubated with cells during this serum starvation period. 50 ng/ml PRL was then added to wells for 30 min, after which cells were rinsed once in PBS and lysed in a buffer consisting of 50 mM Tris-HCl, pH7.5, 150 mM NaCl, 1 mM EDTA, 1% NP-40, 1 mM Na3OV4, 50 mM NaF, 0.25% deoxycholate and protease inhibitors. Tubes were spun down at 14,000 rpm in a refrigerated microfuge and lysates were quantitated using BCA reagents. 30 μg of whole cell lysate was separated by 10% SDS-PAGE and proteins were detected using phospho-specific antibodies for STAT5A/B (Y694/Y699, Upstate) or PRLR (Y546/Y611, in-house) and ECL. Equal protein loading was determined by staining with antibodies specific for total STAT5 (BD) or PRLR (Zymed) or AKT (Cell Signalling). Results of a representative assay of effect of a PRLR-specific antibody on PRLR intracellular phosphorylation are shown in FIG. 6.
Chimeric mAbs were analyzed for their ability to inhibit the proliferation and survival of BaF/PRLR cells [FIG. 11]. […] In order to assess the PRLR signal-neutralizing capability of the chimeric antibodies in a human breast cancer model, T47D cells were treated with 1 ug/ml mAb for 30 min prior to PRL stimulation. At the same time, additional cell samples were incubated with antibody alone to examine any potential agonism gained through chimerization of the antibody candidates.
Antibodies were assessed in target modulation and cell proliferation assays. FIG. 16 depicts the effect of 2 concentrations of chXHA.06.642 and HUMAN ENGINEERED™ antibodies he.06.642-1 and he.06.642-2, on PRL-induced Stat5 phosphorylation in T47D cells. […] Similar results were found for chXHA.06.275 variants.
Background: Immunoblotting shows a protein as a band on a membrane.

Series [2] is described as follows: Solubility in PBS and aggregation state by size exclusion chromatography. The class given is physicochemical. The procedure:
Elution of the major peak was by […] glycine pH 3.5. Pooled material was dialyzed into PBS and concentrated in centrifugal concentrators with a nominal molecular weight cut-off of 30 kD. Final purities were >95% and overall yields were approximately 60%. The final pools were assayed for endotoxin using an Endosafe PTS LAL unit (Charles River) or the QCL-1000 Chromogenic LAL Endpoint Assay (Lonza), and the results were <0.05 EU/mg (below the limit of detection) for all the antibodies. Aggregation state of the chimeric antibody he.06.642-2 was determined to be monomeric by SEC on a Superdex 200 10/300 GL column (GE Healthcare).

B1: he.06.642-2: HUMAN-ENGINEERED antibody from XHA.06.642; variable regions SEQ ID NO: 88 and SEQ ID NO: 90 by order of listing (antibody, V domains shown)
VH: EVQLVESGGGLVQPGGSLRLSCAVSGFTFSSYGMSWVRQAPGKGLEWVATVSSGGTYTYYPDSVKGRFTISRDNSKNTLYLQMNSLRAEDTAVYYCARHRGNYYATYYYAMDYWGQGTLVTVSS
VL: DIVLTQSPDSLAVSLGERATINCKASKSVSTSGYTYMHWYQQKPGQPPKLLIYLASNRESGVPDRFSGSGSGTDFTLTISPVQAEDVATYYCQHSGELPPSFGQGTKLEIK
For the molecule B1, the figures for the ka with cynomolgus PRLR ECD and with human PRLR ECD were 1.8E+05 and 1.7E+05, respectively. Further, the kd in the series with cynomolgus PRLR ECD came to 8.3E−03; with human PRLR ECD it was 5.3E−04. In addition, the koff amounted to 6.0E−03 in the series with Cyno PRLR; 9.1E−04 in the series with Human PRLR; 3.1E−04 with Mouse PRLR (Table 11, Murin, covalently immobilized antibody, in 1/s); 1.4E−04 with Rat PRLR (Table 11, Rat, covalently immobilized antibody, in 1/s). Moreover, the “Murine KD/Human KD” value in the series with Mouse PRLR is “Murine KD/Human KD = 1”. Further, in the series with Mouse PRLR (compared with human PRLR), the “binding to Mouse PRLR (in words)” value is “equivalent affinity”. The “Rat KD/Human KD” value with Rat PRLR is listed as “Rat KD/Human KD = 0.75”. In addition, in the series with Rat PRLR (compared with human PRLR), the “binding to Rat PRLR (in words)” value is reported as “equivalent affinity”. The “agonism: induction of PRLR signaling by antibody alone” value in series [1] (T47D cells treated with mAb alone) was “neither antibody displayed any agonistic activity”. Moreover, the “block of PRL-induced signaling (phospho-PRLR, phospho-Stat5)” value in series [1] (T47D cells, 1 or 10 ug/ml mAb, then PRL 50 ng/ml 30 min) is on record as “complete p-Stat5 signal abrogation”. In series [2], the “aggregation state by size exclusion chromatography” value is “monomeric”.
